Substitutions are numbered along the chain they refer to. Numbers in names are those of the source. Like-named read-outs stand apart in the source and are kept apart here.
Experiments:
[1] = Chloromethane dehalogenation (Purpald detection of formaldehyde); format: biochemical; settings: for colorimetric response (Purpald): chloromethane, cofactor regeneration system
Description: The dehalogenation reaction is based on the hydroxylation of the carbon atom carrying the halogen by a spontaneous (base catalyzed) alpha-elimination reaction which leads to the formation of an aldehyde or ketone depending on the starting haloalkane. The expected reaction mechanism for the dehalogenation of a general alpha-haloalkane is described by the scheme:
To test the feasibility of this approach, chloromethane was chosen as substrate for the dehalogenation reaction. Compared to other haloalkanes, chloromethane (CM) has the advantage to be moderately soluble in water (0.5 g/100 ml) and to lead to formaldehyde as end product of the hydroxylation/alpha-elimination reaction. Formaldehyde can be then readily detected by colorimetric reaction with Purpald as described previously. To test the reaction, two BM-3 mutants from later rounds of random mutagenesis, 35-E1141 and 20-D3, were incubated in the presence of CM and a cofactor regeneration system based on NADP^+, glucose-6-phosphate and glucose-6-phosphate dehydrogenase. Reactions with wild-type P450 BM-3 and without enzyme were included as controls.
The reaction was repeated in the presence of additional BM-3 mutants, including 1-8H, 1-12G2 and the wild-type P450 BM-3 in which A328 was substituted with valine (BM-3-A328V) (FIG. 27B). […] Wild-type BM-3 was substituted with other amino acid residues at position […].
The activity of BM-3-A328V on CM and other substrates such as HME, DME, and propane was further investigated by measuring product formation rate, cofactor consumption and coupling efficiency (Table 14). This mutant was also found to be capable to hydroxylate ethane to ethanol, although only for a total of about 5-10 turnovers. In Table 14 “consumption” rates are expressed as nmol NADPH/nmol enzyme/min and “product formation” rates are expressed as nmol product/nmol enzyme/min.

[2] = Kinetic constants for n-alkanes: heptane; format: biochemical; settings: N.m = not measurable
Description: Rate measurements. Initial rates of product formation were determined at 25° C. in 100 mM KPi pH 8.0 buffer using purified protein (100 nM) and a substrate concentration of 1.6 mM. In a 5 mL-vial, 20 μL of alkane solution (in ethanol) were dissolved in 400 μL KPi buffer, to which 500 μL enzyme solution at 100-200 nM was added. Reaction was initiated by adding 100 μL of 5 mM NADPH solution, followed by stirring at 300 rpm for 1 minute, and quenched by adding 200 μL chloroform and stirring at 800 rpm for 10 sec. Solutions were transferred to an Eppendorf tube, to which internal standard (10 μL 25 mM 1-bromohexane in ethanol) was added. Tubes were vortexed for 10 sec and centrifuged for 30 sec at 10,000 g. Organic phase was removed and analyzed by GC. For propane, reactions were carried out in a 5 mL-scale using 100-400 nM purified enzyme, propane-saturated buffer (propane concentration≈1.6 mM) and a final NADPH concentration of 500 μM. Reactions were stopped by addition of 200 μL H2SO4 conc. and analyzed by derivatization to alkyl nitrites followed by GC-ECD analysis as described below.
Products from alkane reactions were identified and quantified by gas chromatography using authentic standards and calibration curves with internal standards. For the reactions with alkanes from pentane to decane, GC analyses were carried out using a Shimadzu GC-17A gas chromatograph, Agilent HP5 column (30 m×0.32 mm×0.1 μm film), 1 μL injection, FID detector, and the following separation program: 250° C. inlet, 250° C. detector, 50° C. oven for 3 min, 5° C./min gradient to 100° C., 25° C./min gradient to 230° C., and 230° C. for 3 min. For butane and propane (TTN) reactions, GC analyses were carried out using a Hewlett-Packard 5890 Series II Plus gas chromatograph, Supelco SPB-1 column (60 m×0.52 mm×0.5 μm film), 0.5 μL injection, FID detector, and the following separation program: 250° C. inlet, 275° C. detector, 80° C. oven for 2 min, 10° C./min gradient to 110° C., 25° C./min gradient to 275° C., and 275° C. for 2.5 min. For ethane and propane (rate) reactions, analysis of reaction mixtures was carried out by derivatization to alkyl nitrites followed by GC-ECD analysis. For laurate, reaction product analysis was carried out by derivatization with N-methyl-N-trimethylsilylheptafluorobutyramide followed by extraction with hexane. Organic solutions were analyzed by FID-GC.
To further investigate the evolution of substrate specificity, kinetic constants for the C5 to C8 alkanes were determined from Michaelis-Menten plots (Table 19). The preference of 35E11 and its evolutionary predecessors for medium-chain alkanes is indicated by their high C8/C5 specificities ((kcat/Km)8/(kcat/Km)5˜100), where Km appears to be the major contributing factor. C8/C5 specificity decreases to ˜5 in the immediate precursors of P450PMO and then switches altogether to the smaller alkane, becoming 0.4 in P450PMO. In P450PMO, catalytic efficiency is highest on propane and decreases along the alkane series, driven by decreasing kcat.

B1: Wild-type BM-3: wild-type cytochrome P450 BM-3 from Bacillus megaterium, SEQ ID NO:1 (protein, listed as Bacillus megaterium)
chain: TIKEMPQPKTFGELKNLPLLNTDKPVQALMKIADELGEIFKFEAPGRVTRYLSSQRLIKEACDESRFDKNLSQALKFVRDFAGDGLFTSWTHEKNWKKAHNILLPSFSQQAMKGYHAMMVDIAVQLVQKWERLNADEHIEVPEDMTRLTLDTIGLCGFNYRFNSFYRDQPHPFITSMVRALDEAMNKLQRANPDDPAYDENKRQFQEDIKVMNDLVDKIIADRKASGEQSDDLLTHMLNGKDPETGEPLDDENIRYQIITFLIAGHETTSGLLSFALYFLVKNPHVLQKAAEEAARVLVDPVPSYKQVKQLKYVGMVLNEALRLWPTAPAFSLYAKEDTVLGGEYPLEKGDELMVLIPQLHRDKTIWGDDVEEFRPERFENPSAIPQHAFKPFGNGQRACIGQQFALHEATLVLGMMLKHFDFEDHTNYELDIKETLTLKPEGFVVKAKSKKIPLGGIPSPSTEQSAKKVRKKAENAHNTPLLVLYGSNMGTAEGTARDLADIAMSKGFAPQVATLDSHAGNLPREGAVLIVTASYNGHPPDNAKQFVDWLDQASADEVKGVRYSVFGCGDKNWATTYQKVPAFIDETLAAKGAENIADRGEADASDDFEGTYEEWREHMWSDVAAYFNLDIENSEDNKSTLSLQFVDSAADMPLAKMHGAFSTNVVASKELQQPGSARSTRHLEIELPKEASYQEGDHLGVIPRNYEGIVNRVTARFGLDASQQIRLEAEEEKLAHLPLAKTVSVEELLQYVELQDPVTRTQLRAMAAKTVCPPHKVELEALLEKQAYKEQVLAKRLTMLELLEKYPACEMKFSEFIALLPSIRPRYYSISSSPRVDEKQASITVSVVSGEAWSGYGEYKGIASNYLAELQEGDTITCFISTPQSEFTLPKDPETPLIMVGPGTGVAPFRGFVQARKQLKEQGQSLGEAHLYFGCRSPHEDYLYQEELENAQSEGIITLHTAFSRMPNQPKTYVQHVMEQDGKKLIELLDQGAHFYICGDGSQMAPAVEATLMKSYADVHQVSEADARLWLQQLEEKGRYAKDVWAG
For B1, which “total turnover number on CM” value ([1]; compared with the other mutants of the study) is on record?
Its value is “no detectable activity”.

And the Km [2]?
The Km was “n.m”.

And the kcat [2]?
The kcat was “n.m”.

B2: 35-E11: P450 BM-3 variant, SEQ ID NO:7: 53-5H substitutions plus E464G and I710T (protein)
chain: TIKEMPQPKTFGELKNLPLLNTDKPVQALMKIADELGEIFKFEAPGCVTRYLSSQRLIKEACDESRFDKNLSQALKFFRDFSGDGLFTSWTHEINWKKAHNILLPSFSQQAMKGYHAMMVDIAVQLVQKWERLNADEHIEVSEDMTRLTLDTIGLCGFNYRFNSFYRDQPHPFIISMVRALDEVMNKLQRANPDDPAYDENKRQCQEDIKVMNDLVDKIIADRKARGEQSDDLLTQMLNGKDPETGEPLDDGNISYQIITFLIAGHETTSGLLSFALYFLVKNPHVLQKVVEEAARVLVDPVPSYKQVKQLKYVGMVLNEALRLWPTFPAFSLYAKEDTVLGGEYPLEKGDEVMVLIPQLHRDKTIWGDDVEEFRPERFENPSAIPQHAFKPFGNGQRACIGQQFALHEATLVLGMMLKHFDFEDHTNYELDIKETLTLKPEGFVVKAKSKKIPLGGIPSPSTGQSAKKVRKKAENAHNTPLLVLYGSNMGTAEGTARDLADIAMSKGFAPQVATLDSHAGNLPREGAVLIVTASYNGHPPDNAKQFVDWLDQASADEVKGVRYSVFGCGDKNWATTYQKVPAFIDETLAAKGAENIADRGEADASDDFEGTYEEWREHMWSDVAAYFNLDIENSEDNKSTLSLQFVDSAADMPLAKMHGAFSTNVVASKELQQPGSARSTRHLEIELPKEASYQEGDHLGVIPRNYEGTVNRVTARFGLDASQQIRLEAEEEKLAHLPLAKTVSVEELLQYVELQDPVTRTQLRAMAAKTVCPPHKVELEALLEKQAYKEQVLAKRLTMLELLEKYPACEMKFSEFIALLPSIRPRYYSISSSPRVDEKQASITVSVVSGEAWSGYGEYKGIASNYLAELQEGDTITCFISTPQSEFTLPKDPETPLIMVGPGTGVAPFRGFVQARKQLKEQGQSLGEAHLYFGCRSPHEDYLYQEELENAQSEGIITLHTAFSRMPNQPKTYVQHVMEQDGKKLIELLDQGAHFYICGDGSQMAPAVEATLMKSYADVHQVSEADARLWLQQLEEKGRYAKDVWAG
modifications: mutant P450 35-E11 protein sequence
For B2, which “colorimetric response (Purpald)” value [1] is on record?
Its value is “specific colorimetric response”.

What about the kcat [2] of the same molecule?
The kcat was 635 ± 83 min⁻¹.

And the Km ([2]; read-out: Km)?
The Km was 200 ± 46 µM.

B3: 20-D3: P450 BM-3 variant, SEQ ID NO:11; 35-E11 plus H285R (protein)
chain: B2 chain with H285R
modifications: mutant P450 20-D3 protein sequence
notes: 35-E11 plus H285R
Which “colorimetric response (Purpald)” value [1] does the source give for B3 here?
Its value is “specific colorimetric response”.

B4: P450PMO: P450 BM-3 variant, SEQ ID NO:125; 7-7 plus G443A and D698G; propane monooxygenase (protein)
chain: B2 chain with L52I, A74E, S82G, L188P, I366V, G443A, D698G
modifications: Mutant P450PMO protein sequence
notes: 7-7 plus G443A and D698G; propane monooxygenase
With B4 as the molecule, how does the kcat [2] read?
The kcat was 32 ± 5 min⁻¹.

What about the Km ([2]; read-out: Km) of the same molecule?
Its Km is 190 ± 40 µM.
